Assays:
[1] = test system: casein; experiment: pH stability and autolytic resistance, 6 hours at 37° C. in phosphate buffer; type: physicochemical; details: for Retained activity after 6 hours of exposure: phosphate buffer, average of 5 ± standard error
Method: Natural (non-immobilized) and immobilized forms of each enzyme were loaded into 10 mL of phosphate buffer solutions at pH 7.0, 6.0, and 5.0 and mixed for 6 hours at 37° C. These pH values were selected as representative of the range of pH of intact to wounded skin. The amount of natural or immobilized enzyme material that was added at the start of the test was based on its measured activity, so that all tests started with similar enzyme activities for each enzyme: 2.6 U bromelain, 21 U collagenase, and 5.4 U trypsin. Retained activity was determined by taking a sample of the test solution at a given time point and evaluating it against casein. The measured activity of the test sample was divided by the activity measured at the start of the test and is presented as the average of 5 measurements±standard error, Table 2.

[2] = Diffusion through Strat-M membranes in Franz cell (in vitro dermal compatibility); type: in vitro ADME; details: after 6 hours, averaged across all tests, 37° C., PBS pH 7.4
Excerpt: Strat-M™ membranes (EMD Millipore) were selected and for testing diffusion of the immobilized enzyme through healthy skin. Strat-M is a synthetic polymeric membrane designed to simulate the properties of human skin for transdermal diffusion. The membrane is composed of multiple polyether sulfone layers with a tightly packed surface layer to create a morphology that resembles human skin. The advantage of this material is that it provides a more predictive result, since it has less variability between samples, and is not as limited to storage conditions, safety considerations, and sample availability.
Franz cells with 5 mL receptor volumes were filled with filtered 10 mM PBS buffer at pH 7.4 and held at 37° C. Strat-M membranes were placed on the receptor, covered with 0.3 mL of buffer, and the system was allowed to equilibrate with the receptor fluid for at least 30 minutes. After equilibration 0.5 mL of solutions containing 20-100 mg/mL of natural enzyme, immobilized enzyme, or BSA as a control were added to the top of the Franz cell and the cell was covered. 0.5 mL samples were taken hourly (replacing the volume with fresh PBS buffer each time) for the first 6 hours and a final sample at 24 hours. The protein concentration in each sample was evaluated using a Bradford assay and a 660 nm protein concentration assay from Pierce. The enzyme activity of the 24-hour samples was evaluated to determine if active enzyme or just peptides had passed through the membrane.

[3] = test system: Human fibroblasts; experiment: Fibroblast compatibility study, resazurine-based assay; type: cell-based; details: all tested concentrations
Method: (§1) Immobilized enzyme samples were further analyzed to determine if they have a detrimental effect on healthy tissue surrounding a burn wound. Human keratinocytes and fibroblasts obtained from ATCC, were seeded at cell densities of 2×10^4 in 24 well plates 6 days prior to experiments and incubated at 37° C. under 5% CO2. On day 7 a stock solution of 100 mg/mL an immobilized enzyme or natural enzyme is prepared in either PBS or a culture medium. Cells were treated with 500 μL of the enzyme solution, at several dilutions, for up to 6 hours. At the end of the test, the enzyme solution is removed, cells were washed twice with PBS, and 500 μL of the appropriate cultivation media is added. The effect of the different concentrations of enzyme on the cells is assessed using a resazurine-based assay and life cell imaging. In this case the fluorescence signal is proportional to the amount of vital cells. All enzyme concentrations were measured in triplicate (n=3). The enzyme containing fluid removed after 6 hours of exposure to cells is evaluated using the methods described above for enzymatic activity. Data determined above is used to compensate for autolytic degradation in test samples.

[4] = test system: Human keratinocytes; experiment: Keratinocyte compatibility testing, resazurine-based assay; type: cell-based
Method: as §1

Substance	Retained activity after 6 hours of exposure ([1]; pH 5, 37° C.)	Retained activity after 6 hours of exposure ([1]; pH 6, 37° C.)	Loss of starting activity after 6 hours ([1]; pH 7)	Retained activity after 6 hours of exposure ([1]; pH 7, 37° C.)	Amount of protein passing through Strat-M membranes [2]	Relative signal (cell growth) [3]	Relative signal ([4]; all tested concentrations)	Retained activity after 6 hours of exposure ([1]; pH 5, 37° C., listed as bromelain Natural)	Highest relative signal ([4]; 40 mg/mL)	Loss of initial activity within 6 hours ([1]; all pH tested)
trypsin	43.3% ± 1.1%	46.1% ± 1.2%	92%	7.7% ± 5.3%	11.93 ± 0.50 mg	almost no change to cell growth	around 1			
bromelain		36.1% ± 1.4%		64.7% ± 3.0%	2.08 ± 0.25 mg			95.6% ± 4.9%	6.71	
collagenase	12.3% ± 4.5%	18.9% ± 1.3%		13.9% ± 3.3%	18.15 ± 0.81 mg	~1				80-90%

Source: US20230255880A1, “IMMOBILIZED ENZYME-BASED WOUND DEBRIDEMENT” (Guild Associates Inc., priority 2022, published 2023)
